Assay results published in paper PMC5584168.

T1: full-length She1 (She1-FL), HALO-tagged (S. cerevisiae), P38200
T1 chain: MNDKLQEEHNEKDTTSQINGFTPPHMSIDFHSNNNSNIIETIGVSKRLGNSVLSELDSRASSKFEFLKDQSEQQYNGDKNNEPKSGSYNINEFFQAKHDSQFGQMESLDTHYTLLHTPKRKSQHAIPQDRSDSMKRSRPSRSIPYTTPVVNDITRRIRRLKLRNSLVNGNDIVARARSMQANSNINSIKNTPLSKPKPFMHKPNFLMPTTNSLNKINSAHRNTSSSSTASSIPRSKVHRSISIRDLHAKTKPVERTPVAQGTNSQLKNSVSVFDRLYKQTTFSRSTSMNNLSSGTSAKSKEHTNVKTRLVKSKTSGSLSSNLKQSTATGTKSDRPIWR


Tests used:
[1] = biological target: Taxol-stabilized microtubules polymerised from bovine tubulin (bovine) (UniProt Q6B856); assay: wide-field fluorescence microscopy of labelled protein on microtubules; 1 µM TMR-labeled She1 construct preincubated with 60 nM Taxol-stabilized HiLyte 488–labeled MTs, room temperature, 20 min, MAP-binding buffer with 150 mM KCl and 20 µM Taxol; MTs held in a flow chamber by antitubulin antibody; bound TMR fluorescence on the MT measured
[2] = biological target: Taxol-stabilized microtubules polymerised from bovine tubulin (bovine) (UniProt Q6B856); assay: co-sedimentation; low-speed microfuge pelleting (15,871 g, 10 min, room temperature); 5 µM She1-C–TMR with varying concentrations of Taxol-stabilized MTs, MAP buffer with 50 mM KCl; quadratic fit, apparent dissociation constant; stoichiometry from the saturation point
[3] = biological target: T1, full-length She1 (She1-FL), HALO-tagged …; assay: negative-stain EM; purified She1-FL at 4 µM on carbon-coated grids, 0.75% uranyl formate; conditions: remark: other sources report otherwise

Row | Binder | mean TMR fluorescence on MTs [1] | stoichiometry N (She1-C–TMR per tubulin) [2] | stoichiometry N [3]
1 | full-length She1 (She1-FL), HALO-tagged (natural protein, HaloTag TMR ligand (MT-binding and cross-linking assays) or HaloTag Alexa Fluor 488 ligand (ultracentrifugation) on the HALO tag) MNDKLQEEHNEKDTTSQINGFTPPHMSIDFHSNNNSNIIETIGVSKRLGNSVLSELDSRASSKFEFLKDQSEQQYNGDKNNEPKSGSYNINEFFQAKHDSQFGQMESLDTHYTLLHTPKRKSQHAIPQDRSDSMKRSRPSRSIPYTTPVVNDITRRIRRLKLRNSLVNGNDIVARARSMQANSNINSIKNTPLSKPKPFMHKPNFLMPTTNSLNKINSAHRNTSSSSTASSIPRSKVHRSISIRDLHAKTKPVERTPVAQGTNSQLKNSVSVFDRLYKQTTFSRSTSMNNLSSGTSAKSKEHTNVKTRLVKSKTSGSLSSNLKQSTATGTKSDRPIWR | 22000 a.u. |  | 
2 | She1-C, C-terminal 194–338 aa of She1, HALO-tagged (domain or fragment, HaloTag TMR ligand on the HALO tag where labelled) SKPKPFMHKPNFLMPTTNSLNKINSAHRNTSSSSTASSIPRSKVHRSISIRDLHAKTKPVERTPVAQGTNSQLKNSVSVFDRLYKQTTFSRSTSMNNLSSGTSAKSKEHTNVKTRLVKSKTSGSLSSNLKQSTATGTKSDRPIWR | 21000 a.u. | 1 | 
3 | full-length She1 (She1-FL), HALO-tagged, P38200 1-338 (natural protein, here or on the partner: HaloTag TMR ligand (MT-binding and cross-linking assays) or HaloTag Alexa Fluor 488 ligand (ultracentrifugation) on the HALO tag; HaloTag TMR ligand (MT-binding and cross-linking assays) or HaloTag Alexa Fluor 488 ligand (ultracentrifugation) on the HALO tag) MNDKLQEEHNEKDTTSQINGFTPPHMSIDFHSNNNSNIIETIGVSKRLGNSVLSELDSRASSKFEFLKDQSEQQYNGDKNNEPKSGSYNINEFFQAKHDSQFGQMESLDTHYTLLHTPKRKSQHAIPQDRSDSMKRSRPSRSIPYTTPVVNDITRRIRRLKLRNSLVNGNDIVARARSMQANSNINSIKNTPLSKPKPFMHKPNFLMPTTNSLNKINSAHRNTSSSSTASSIPRSKVHRSISIRDLHAKTKPVERTPVAQGTNSQLKNSVSVFDRLYKQTTFSRSTSMNNLSSGTSAKSKEHTNVKTRLVKSKTSGSLSSNLKQSTATGTKSDRPIWR |  |  | 6
